Test system: LBL 10081

Substance: Anthrax lethal factor (Product #169, List Biological Laboratories, Inc)
- Peak area Average, 2 hour digest, LF 5 pg/ml plasma: 9150 peak area
- Peak area Average, 2 hour digest, LF 10 pg/ml plasma: 10300 peak area
- Peak area Average, 2 hour digest, LF 20 pg/ml plasma: 15900 peak area
- Peak area Average, 2 hour digest, LF 50 pg/ml plasma: 33700 peak area
- Peak area Average, 3.5 hour digest, LF 5 pg/ml plasma: 12300 peak area
- Peak area Average, 3.5 hour digest, LF 10 pg/ml plasma: 15900 peak area
- Peak area Average, 3.5 hour digest, LF 20 pg/ml plasma: 24200 peak area
- Peak area Average, 3.5 hour digest, LF 50 pg/ml plasma: 49100 peak area
- Peak area Average, 5 hour digest, LF 5 pg/ml plasma: 15000 peak area
- Peak area Average, 5 hour digest, LF 10 pg/ml plasma: 22300 peak area
- Peak area Average, 5 hour digest, LF 20 pg/ml plasma: 32900 peak area
- Peak area Average, 5 hour digest, LF 50 pg/ml plasma: 66700 peak area
- Peak area Average, overnight digest (RT), LF 5 pg/ml plasma: 26900 peak area
- Peak area Average, overnight digest (RT), LF 10 pg/ml plasma: 36200 peak area
- Peak area Average, overnight digest (RT), LF 20 pg/ml plasma: 57900 peak area
- Peak area Average, overnight digest (RT), LF 50 pg/ml plasma: 130000 peak area
- Peak area, 2 hour digest, LF 5 pg/ml plasma, rep 1: 9410 peak area
- Peak area, 2 hour digest, LF 5 pg/ml plasma, rep 2: 8890 peak area
- Peak area, 2 hour digest, LF 10 pg/ml plasma, rep 1: 10700 peak area
- Peak area, 2 hour digest, LF 10 pg/ml plasma, rep 2: 9970 peak area
- Peak area, 2 hour digest, LF 20 pg/ml plasma, rep 1: 16900 peak area
- Peak area, 2 hour digest, LF 20 pg/ml plasma, rep 2: 14900 peak area
- Peak area, 2 hour digest, LF 50 pg/ml plasma, rep 1: 33700 peak area
- Peak area, 2 hour digest, LF 50 pg/ml plasma, rep 2: 33700 peak area
- Peak area, 3.5 hour digest, LF 5 pg/ml plasma, rep 1: 11500 peak area
- Peak area, 3.5 hour digest, LF 5 pg/ml plasma, rep 2: 13200 peak area
- Peak area, 3.5 hour digest, LF 10 pg/ml plasma, rep 1: 16500 peak area
- Peak area, 3.5 hour digest, LF 10 pg/ml plasma, rep 2: 15300 peak area
- Peak area, 3.5 hour digest, LF 20 pg/ml plasma, rep 1: 24000 peak area
- Peak area, 3.5 hour digest, LF 20 pg/ml plasma, rep 2: 24300 peak area
- Peak area, 3.5 hour digest, LF 50 pg/ml plasma, rep 1: 49700 peak area
- Peak area, 3.5 hour digest, LF 50 pg/ml plasma, rep 2: 48400 peak area
- Peak area, 5 hour digest, LF 5 pg/ml plasma, rep 1: 14800 peak area
- Peak area, 5 hour digest, LF 5 pg/ml plasma, rep 2: 15100 peak area
- Peak area, 5 hour digest, LF 10 pg/ml plasma, rep 1: 22200 peak area
- Peak area, 5 hour digest, LF 10 pg/ml plasma, rep 2: 22400 peak area
- Peak area, 5 hour digest, LF 20 pg/ml plasma, rep 1: 31600 peak area
- Peak area, 5 hour digest, LF 20 pg/ml plasma, rep 2: 34200 peak area
- Peak area, 5 hour digest, LF 50 pg/ml plasma, rep 1: 67200 peak area
- Peak area, 5 hour digest, LF 50 pg/ml plasma, rep 2: 66100 peak area
- Peak area, overnight digest (RT), LF 5 pg/ml plasma, rep 1: 28500 peak area
- Peak area, overnight digest (RT), LF 5 pg/ml plasma, rep 2: 25300 peak area
- Peak area, overnight digest (RT), LF 10 pg/ml plasma, rep 1: 36500 peak area
- Peak area, overnight digest (RT), LF 10 pg/ml plasma, rep 2: 36000 peak area
- Peak area, overnight digest (RT), LF 20 pg/ml plasma, rep 1: 58200 peak area
- Peak area, overnight digest (RT), LF 20 pg/ml plasma, rep 2: 57600 peak area
- Peak area, overnight digest (RT), LF 50 pg/ml plasma, rep 1: 136000 peak area
- Peak area, overnight digest (RT), LF 50 pg/ml plasma, rep 2: 124000 peak area
- Slope (Peak Area/pg LF), 2 hr digest (Peak Area/pg LF): 553
- Slope (Peak Area/pg LF), 3.5 hr digest (Peak Area/pg LF): 811
- Slope (Peak Area/pg LF), 5 hr digest (Peak Area/pg LF): 1130
- Slope (Peak Area/pg LF), Overnight digest (RT) (Peak Area/pg LF): 2280
- Substrate RFUs after 5 hrs digest, LF 10 pg/ml in 1:10 diluted plasma: 140 RFU
- Substrate RFUs after 5 hrs digest, LF 20 pg/ml in 1:10 diluted plasma: 137 RFU
- Substrate RFUs after 5 hrs digest, LF 50 pg/ml in 1:10 diluted plasma: 137 RFU
- Substrate RFUs after 5 hrs digest, LF 100 pg/ml in 1:10 diluted plasma: 141 RFU
- Substrate RFUs after 5 hrs digest, LF 200 pg/ml in 1:10 diluted plasma: 155 RFU

Source: patent publication US20170114338
